Literature values, collected in PMC7539009.

Target: VPS29 (Homo sapiens) (UniProt Q9UBQ0)
Assay: ITC

Substance: TBC1D5 132-158 (from UniProt Q92609)
- Kd: 20 µM
